# System: Escherichia coli TOP10
# Assay: shrunken log2 fold change of peptide-encoding DNA abundance (4.5 h post-induction vs induction); higher = less antimicrobial activity (less host growth inhibition)
# Settings: time post-induction: 4.5 h; library: site-saturation at positions 5, 18, 19, 20
# 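Note: peptides expressed intracellularly from a pBAD plasmid library in pooled LB shake-flask culture, induced with 0.3% L-arabinose, DNA abundance read by NGS, three biological replicates, DESeq2 with apeglm shrinkage.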
row,Sequence,shrunken log2 fold change
1,RRIRHRPPRLPRPRPRPMWEPRP,-0.0441
2,RRIRGRPPRLPRPRPRPIVQPRP,0.606
3,RRIRNRPPRLPRPRPRPDPGPRP,0.0569
4,RRIRGRPPRLPRPRPRPEGMPRP,1.34
5,RRIRTRPPRLPRPRPRPVKRPRP,0.0411
6,RRIRTRPPRLPRPRPRPVIQPRP,-0.202
7,RRIRFRPPRLPRPRPRPGCYPRP,-0.238
8,RRIRSRPPRLPRPRPRPCDIPRP,-0.0321
9,RRIRVRPPRLPRPRPRPGTHPRP,-0.056
10,RRIRCRPPRLPRPRPRPWGSPRP,-0.151
11,RRIRCRPPRLPRPRPRPNRHPRP,-0.388
12,RRIRQRPPRLPRPRPRPWDWPRP,0.0372
13,RRIRNRPPRLPRPRPRPGTSPRP,-0.0337
14,RRIRPRPPRLPRPRPRPYGFPRP,-0.426
15,RRIRRRPPRLPRPRPRPFEYPRP,-0.0276
16,RRIRIRPPRLPRPRPRPHCPPRP,-0.102
17,RRIRPRPPRLPRPRPRPAGLPRP,0.279
18,RRIRHRPPRLPRPRPRPEQHPRP,1.73
19,RRIRCRPPRLPRPRPRPMDHPRP,-0.904
20,RRIRERPPRLPRPRPRPRVYPRP,0.000497
21,RRIRKRPPRLPRPRPRPIPTPRP,0.397
22,RRIRVRPPRLPRPRPRPIWNPRP,-0.624
23,RRIRSRPPRLPRPRPRPFDNPRP,0.0211
24,RRIRYRPPRLPRPRPRPAADPRP,-0.0866
25,RRIRIRPPRLPRPRPRPQKVPRP,-0.102

row,Sequence,shrunken log2 fold change
1,RRIRARPPRLPRPRPRPMDGPRP,0.211
2,RRIRWRPPRLPRPRPRPHHLPRP,-0.71
3,RRIRLRPPRLPRPRPRPIASPRP,-0.0599
4,RRIRGRPPRLPRPRPRPKMLPRP,0.509
5,RRIRYRPPRLPRPRPRPKPGPRP,0.221
6,RRIRARPPRLPRPRPRPHGCPRP,0.128
7,RRIRRRPPRLPRPRPRPGPPPRP,1.93
8,RRIRFRPPRLPRPRPRPCTQPRP,-0.549
9,RRIRARPPRLPRPRPRPLYIPRP,-0.293
10,RRIRFRPPRLPRPRPRPCKVPRP,0.0595
11,RRIRHRPPRLPRPRPRPDRWPRP,0.255
12,RRIRLRPPRLPRPRPRPNHWPRP,0.0994
13,RRIRHRPPRLPRPRPRPDQHPRP,-0.00237
14,RRIRGRPPRLPRPRPRPVYRPRP,0.15
15,RRIRMRPPRLPRPRPRPYPDPRP,-0.0456
16,RRIRERPPRLPRPRPRPHYSPRP,-0.16
17,RRIRIRPPRLPRPRPRPRFTPRP,-0.043
18,RRIRARPPRLPRPRPRPRCCPRP,0.582
19,RRIRARPPRLPRPRPRPADMPRP,0.194
20,RRIRYRPPRLPRPRPRPAAHPRP,-0.134
21,RRIRCRPPRLPRPRPRPEEFPRP,0.0238
22,RRIRARPPRLPRPRPRPAPAPRP,0.922
23,RRIRIRPPRLPRPRPRPRPMPRP,0.129
24,RRIRSRPPRLPRPRPRPCGGPRP,0.012
25,RRIRNRPPRLPRPRPRPADTPRP,0.124

row,Sequence,shrunken log2 fold change
1,RRIRHRPPRLPRPRPRPSTWPRP,-0.674
2,RRIRARPPRLPRPRPRPLWYPRP,-0.278
3,RRIRGRPPRLPRPRPRPAWYPRP,0.405
4,RRIRRRPPRLPRPRPRPCHLPRP,-0.0646
5,RRIRARPPRLPRPRPRPGVTPRP,0.611
6,RRIRVRPPRLPRPRPRPCNMPRP,-0.247
7,RRIRCRPPRLPRPRPRPSWNPRP,-0.68
8,RRIRGRPPRLPRPRPRPNWIPRP,-0.034
9,RRIRHRPPRLPRPRPRPSKQPRP,-0.166
10,RRIRYRPPRLPRPRPRPKQPPRP,0.102
11,RRIRGRPPRLPRPRPRPYKQPRP,0.025
12,RRIRHRPPRLPRPRPRPHPYPRP,-0.462
13,RRIRFRPPRLPRPRPRPMCTPRP,0.0284
14,RRIRMRPPRLPRPRPRPPYIPRP,-0.0556
15,RRIRPRPPRLPRPRPRPKTGPRP,0.186
16,RRIRLRPPRLPRPRPRPEVSPRP,0.254
17,RRIRHRPPRLPRPRPRPEGVPRP,0.0659
18,RRIRFRPPRLPRPRPRPKGYPRP,0.00663
19,RRIRARPPRLPRPRPRPFFGPRP,0.349
20,RRIRARPPRLPRPRPRPCNLPRP,-0.314
21,RRIRMRPPRLPRPRPRPAESPRP,0.419
22,RRIRSRPPRLPRPRPRPAGAPRP,0.36
23,RRIRHRPPRLPRPRPRPRMYPRP,-0.194
24,RRIRQRPPRLPRPRPRPWFDPRP,-0.253
25,RRIRYRPPRLPRPRPRPDWGPRP,-0.0597

# From the supplement of paper PMC9112550, “Optimization of the antimicrobial peptide Bac7 by deep mutational scanning” (BMC Biology, 2022)
